Assay results as given in patent publication US11046771 (dated 2021).

Key:
HER2 (cell surface) [1] = molecular target: T1, HER2 (cell surface) (human, UniProt P04626); test: FACS, AU565 cells
HER2 (cell surface) [2] = molecular target: T1, HER2 (cell surface); test: FACS, A431 cells

B1: 098 (PC1014-098) (antibody, V domains shown)
VH: EVQLLESGGGLVQPGGSLRLSCAASGFTFSNYGMSWVRQAPGKGLEWVSAISGSAYSTYYADSVKGRFTISRDNSKNTLWLQMNSLRAEDTAVYYCAKAHYHGSGSYYTLFDYWGQGTLVTVSS
VL: DIQMTQSPSSLSASVGDRVTITCRASQGISSWLAWYQQKPEKAPKSLIYAASSLQSGVPSRFSGSGSGTDFTLTISSLQPEDFATYYCQQYNSYPYTFGQGTKLEIK
HER2 (cell surface) [1]
  EC50: 0.336 µg/mL
HER2 (cell surface) [2]
  EC50: 0.068 µg/mL
